Two molecules from patent US9809653B2, “Anti-LAMP1 antibodies and antibody drug conjugates, and uses thereof” (SANOFI, priority 2012, dated 2017) can be followed below.

Assay [1] has as its target T1, recombinant human LAMP1 coated on plate (Homo sapiens, UniProt P11279).
T1 construct: made in house; host or cells: HEK293 (293-F), transient expression, IMAC-purified
T1 sequence (P11279 with tags, fused parts or gaps): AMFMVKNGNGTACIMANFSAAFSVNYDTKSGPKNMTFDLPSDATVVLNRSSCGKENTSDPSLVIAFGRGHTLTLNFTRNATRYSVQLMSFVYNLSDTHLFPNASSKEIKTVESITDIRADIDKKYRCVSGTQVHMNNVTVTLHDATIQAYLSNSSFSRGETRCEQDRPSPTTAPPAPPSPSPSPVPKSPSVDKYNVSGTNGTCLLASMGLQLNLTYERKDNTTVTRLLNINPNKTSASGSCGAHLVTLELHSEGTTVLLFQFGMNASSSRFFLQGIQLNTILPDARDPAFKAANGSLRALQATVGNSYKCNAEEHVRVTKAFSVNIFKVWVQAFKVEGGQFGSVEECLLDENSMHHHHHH
In words: Binding competition between anti-LAMP1 mAbs by ELISA. The text has this: MAb format was chosen so that the two mAbs had different Fc domains (either human or murine). […] The results were reported as a percentage of the value obtained from the mAb alone at the same concentration.
MAb format was chosen so that the two mAbs had different Fc domains (either human or murine). Individual measurements of mAb binding could be performed specifically by their unique specific binding to Fc (with Peroxidase-AffiniPure Goat Anti-Human IgG Ab, Fcγ Fragment Specific (Jackson 109-035-098) or with Peroxidase-AffiniPure Goat Anti-Mouse IgG Ab, Fcγ Fragment Specific (Jackson 115-035-164)). Results were reported as a percentage of the value obtained from the mAb alone at the same concentration, see Table 8.
(In an ELISA, binding on a coated surface is turned into a signal by an enzyme label.)

The target of another assay is T2, hLAMP1_ΔGYQTI (Homo sapiens, UniProt P11279).
T2 construct: expressed in transfected cells; host or cells: 293-F (HEK293-derived), transient transfection, plasmid pXL5626
T2 sequence (P11279 with tags, fused parts or gaps limits assumed): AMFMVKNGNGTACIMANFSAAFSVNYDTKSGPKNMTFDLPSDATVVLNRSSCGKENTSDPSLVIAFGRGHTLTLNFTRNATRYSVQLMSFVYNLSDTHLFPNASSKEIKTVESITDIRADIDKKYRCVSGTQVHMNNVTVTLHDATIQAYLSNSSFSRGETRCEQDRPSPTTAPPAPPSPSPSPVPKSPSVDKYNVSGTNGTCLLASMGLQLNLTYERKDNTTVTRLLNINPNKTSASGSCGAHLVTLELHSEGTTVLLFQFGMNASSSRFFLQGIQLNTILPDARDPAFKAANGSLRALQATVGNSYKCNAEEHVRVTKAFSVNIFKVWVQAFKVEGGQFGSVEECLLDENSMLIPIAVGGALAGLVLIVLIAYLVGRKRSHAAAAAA
Nature of the assay: Binding onto membrane-anchored human LAMP1 (293-F cells) by flow cytometry. Conditions: pXL5626 hLAMP1_ΔGYQTI. The procedure: Different LAMP1 proteins were expressed at the cell membrane of HEK293 cells after transient expression from mammalian plasmids encoding the entire coding sequence of LAMP1 deleted of the intracellular lysosome-targeting motif GYQTI and substituted by a 5-Ala repeat sequence.
Two days post transfection cells were processed, analyzed by flow cytometry (Guava® easyCyte™ 8HT) as mentioned in example 4.7, and the mean fluorescence was recorded. This fluorescence represents a semi-quantitative assessment of binding.
For orientation: A flow cytometer gives signals particle by particle.

Setting [2] is: mAb alone 0.06 mg/L, Secondary Ab Anti-Human IgG_HRP.
The mark [3] stands for this setting: mAb alone 0.06 mg/L, Secondary Ab Anti-Mouse IgG_HRP.
Setting [4] is: mAb alone 15 mg/L, Secondary Ab Anti-Human IgG_HRP.
Setting [5] is: mAb alone 15 mg/L, Secondary Ab Anti-Mouse IgG_HRP.

Entries after “also recorded” stand apart in the source; their conditions may differ.

B1: MAb2: murine monoclonal anti-LAMP1 antibody, VH SEQ ID NO: 8, VL SEQ ID NO: 12 (antibody, V domains shown)
VH: QVQLQQSAAELARPGASVKMSCKASGYTFTSYTMHWVKQRPGQGLEWIGYFNPSSGYPEYNQKFKDKTTLTADKSSNTAFIQLNSLTSEDSAVYYCSRGYYYGSRGYALDFWGQGASVTVSS
VL: NIVLTQSPVSLAVSLGQRATISCRASESVDINGNTFMHWYQQKPGQSPKLVIYAASNIESGVPARFSGSGSSTDFTFTIDPVEADDVATYYCQQNIEDPWTFGGGTKVEIK
modifications: antibod fragment; antibody fragment
As to B1, in assay [1] (ELISA), the “competition between MAb2 and MAb3 for binding to LAMP1” value was “partially compete”. For the same molecule, the “competition with H4A3 for binding to LAMP1” value in assay [1] (ELISA) was “partially competes”. Moreover, in assay [1] (ELISA), the “competition with MAb1 for binding to LAMP1” value is recorded as “No competition was observed; also recorded: does not compete”. For the same molecule, the “Percentage of signal compared to mAb control alone” value in assay [1] (setting [2]) was 0%; in assay [1] (setting [3]) it was 100%; in assay [1] (setting [4]), 0%; in assay [1] (setting [5]) it was 100%. Further, the values for the Binding call with hLAMP1_ΔGYQTI (Table 17 Experiment no1) and in the assay with hLAMP1_ΔGYQTI (Table 18) were “binding” and “Binding”, respectively. The Mean fluorescence with hLAMP1_ΔGYQTI (Table 17 Experiment no1) was determined as 1183; with hLAMP1_ΔGYQTI (Table 18), 757.

B2: MAb1: murine monoclonal anti-LAMP1 antibody, VH SEQ ID NO: 1, VL SEQ ID NO: 5 (antibody, V domains shown)
VH: QVQLQQSGAELVKPGASVKMSCKASGYIFTNYNIHWVKKSPGQGLEWIGAIYPGNGDAPYSQKFKDKATLTADKSSSTTYMQLSRLTSEDSAVYYCVRANWDVAFAYWGQGTLVSVSA
VL: DIQMTQSPPSLSASLGGKVTITCKASQDIDRYMAWYQDKPGKGPRLLIHDTSTLQPGIPSRFSGSGSGRDYSFSISNLEPEDIATYYCLQYDNLWTFGGGTKLEIK
modifications: Antibody Fragment; antibody fragment
For the molecule B2, in assay [1] (ELISA), the “competition with H4A3 for binding to LAMP1” value is recorded as “does not compete”. Further, the “Percentage of signal compared to mAb control alone” value in assay [1] (setting [2]) stood at 0%; in assay [1] (setting [3]), 100%; in assay [1] (setting [4]), 0%; in assay [1] (setting [5]) it was 100%. The Binding call is “Binding” with hLAMP1_ΔGYQTI (Table 17 Experiment no1), “Full binding” with hLAMP1_ΔGYQTI (Table 17 Experiment no2) and “Binding” with hLAMP1_ΔGYQTI (Table 18). Further, the Mean fluorescence turned out to be 1748 with hLAMP1_ΔGYQTI (Table 17 Experiment no1), 551 with hLAMP1_ΔGYQTI (Table 17 Experiment no2) and 914 with hLAMP1_ΔGYQTI (Table 18).
